How the values were obtained:
[1] = target: T1, PD1 on activated human CD4 and CD8 T cells (human, UniProt Q15116 25-288); assay: flow cytometry, CD3/CD28-activated human PBMCs gated on CD3+CD8+ T cells, FITC anti-mouse Fc secondary antibody; no Matriptase digestion described
T1 construct: whole, on cells; Endogenous PD1 on CD3/CD28-stimulated T cells; also called human PD1; PD1 receptor
Experimental: (§1) PBMCs were bought from Biomex from a healthy donor (Lot 5000899PB). The PBMCs were stimulated for 3 days with CD3 and CD28 to induce upregulation of PD1 on T cells. Therefore, PBMCs were seeded in medium (RPMI1640, 10% FCS, 2 mM Glutamine) into cell culture flasks that were coated for 1 h at 37° C. with 1 μg/ml CD3 (clone OKT3, 302914, BioLegend). CD28 was added in solution to the PBMCs at a concentration of 1 μg/ml (clone CD28.2, 302914, BioLegend). After three days, PBMCs were harvested and transferred into a 96 well round bottom plate (200′000 cells per well). The cells were washed with FACS buffer (PBS, 2% FBS, 5 mM EDTA, 0.025% NaN3) and stained with 30 μl of corresponding TA PD1-IL2v constructs in FACS buffer for 30 min at 4° C. The cells were washed twice with FACS buffer to remove unbound molecules. Then 30 μl of the diluted FITC anti-mouse Fc specific secondary antibody (1:50 dilution, 115-096-071, Jackson ImmunoResearch) or for the human constructs the diluted FITC anti-human Fc specific secondary antibody (1:50 dilution, 115-096-098, Jackson ImmunoResearch) was added to the cells. After 30 min incubation at 4° C. the cells were washed twice with FACS buffer. […] Finally the cells were resuspended in 150 μl FACs buffer and measured using a BD Fortessa gating on CD3+CD4+ cells (CD4 T cells) and CD3+CD8+ cells (CD8 T cells).

[2] = target: T1, PD1 on activated human CD4 and CD8 T …; assay: flow cytometry, CD3/CD28-activated human PBMCs gated on CD3+CD4+ T cells, FITC anti-mouse Fc secondary antibody; no Matriptase digestion described
Experimental: as §1

[3] = target: T1, PD1 on activated human CD4 and CD8 T …; assay: flow cytometry, CD3/CD28-activated human PBMCs gated on CD3+CD4+ T cells, PE anti-human Fc secondary antibody; TA constructs pre-incubated with Matriptase, unmasked controls not
Experimental: (§2) Three formats of TA PD1-IL2v molecules and respective controls were assessed for their capacity to bind to activated PD1 positive CD8 T cells and CD4 T cells within PBMCs in comparison to the respective unmasked molecules.
(§3) PBMCs were purchased from Biomex from a healthy donor (Lot 5000729PB). The PBMCs were stimulated for three days with CD3 and CD28 to induce upregulation of PD1 on T cells. Therefore, PBMCs were seeded in medium (RPMI1640, 10% FCS, 2 mM Glutamine) into cell culture flasks that were coated for 1 hour at 37° C. with 1 μg/ml CD3 (clone OKT3, 302914, BioLegend). CD28 was added in solution to the PBMCs at a concentration of 1 μg/ml (clone CD28.2, 302914, BioLegend). After three days, PBMCs were harvested and transferred into a 96 well round bottom plate (200′000 cells per well). The cells were washed with FACS buffer (PBS, 2% FBS, 5 mM EDTA, 0.025% NaN3) and stained with 30 μl of corresponding TA PD1-IL2v constructs in FACS buffer for 30 min at 4° C. Prior to the staining, 20 μg of the TA PD1-IL2v constructs were digested with 4 μl Matriptase (Enzo ˜2.5 U/μl, ALX-201-246-U25, Lot 12152015, or without Matriptase for the unmasked controls) for 2 hours at 37° C. in 40 μl Matriptase buffer (50 mM Tris, 50 mM NaCl, 0.01% Tween 20, pH 9.0). After the staining, the cells were washed twice with FACS buffer to remove unbound molecules. Then 30 μl of the diluted PE anti-human Fc specific secondary antibody (1:50 dilution, 109-116-170, Jackson ImmunoResearch) was added to the cells. After 30 min incubation at 4° C. the cells were washed twice with FACS buffer. To detect T cells, PBMCs were stained with 30 μl of a mixture of CD3 PE/Cyanine7 (clone UCHT1, 300420, BioLegend), CD4 FITC (clone RPA-T4, 300528, BioLegend) and CD8 APC/Cyanine7 (clone HIT8a, 300926, BioLegend) for 30 min at 4° C. The unbound antibodies were removed by washing twice with FACS buffer. Finally the cells resuspended in 150 μl FACS buffer and measured using a BD Fortessa gating on CD3+CD4+ cells (CD4 T cells) and CD3+CD8+ cells (CD8 T cells).

[4] = target: T1, PD1 on activated human CD4 and CD8 T …; assay: flow cytometry on CD3/CD28-activated T cells (CD4 and CD8) within human PBMCs; construct digested with matriptase; PE anti-human Fc secondary
Experimental: as §3, with “Then 30 μl of the diluted PE anti-human Fc specific secondary antibody (1:50 dilution, 109-116-170, Jackson ImmunoResearch) was added to the cells. After 30 min incubation at 4° C. the cells were washed twice with FACS buffer. To detect T cells, PBMCs were stained with 30 μl of a mixture of CD3 PE/Cyanine7 (clone UCHT1, 300420, BioLegend), CD4 FITC (clone RPA-T4, 300528, BioLegend) and CD8 APC/Cyanine7 (clone HIT8a, 300926, BioLegend) for 30 min at 4° C. The unbound antibodies were removed by washing twice with FACS buffer.” left out

[5] = target: T1, PD1 on activated human CD4 and CD8 T …; assay: flow cytometry, CD3/CD28-activated human PBMCs gated on CD3+CD8+ T cells, PE anti-human Fc secondary antibody; TA constructs pre-incubated with Matriptase, unmasked controls not
Experimental: as §2, §3

T1 sequence (Q15116 25-288): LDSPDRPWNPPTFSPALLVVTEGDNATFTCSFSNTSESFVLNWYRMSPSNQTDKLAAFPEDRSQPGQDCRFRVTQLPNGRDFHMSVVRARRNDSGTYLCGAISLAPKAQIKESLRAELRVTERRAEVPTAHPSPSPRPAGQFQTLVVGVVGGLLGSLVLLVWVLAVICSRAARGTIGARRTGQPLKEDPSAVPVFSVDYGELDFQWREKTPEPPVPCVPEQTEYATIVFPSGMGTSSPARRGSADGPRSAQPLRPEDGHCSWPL

EC50 (read off the curve) [1] [nM] | EC50 (read off the curve) [2] [nM] | EC50 (read off the curve) [3] [nM] | fold binding capacity versus the "in line" and knob/hole formats [4] [fold] | EC50 (read off the curve) [5] [nM] | Binder
~2 | ~2 |  |  |  | murine TA PD1-IL2v, MT204, 2xPQARK, in line (antibody, mouse IgG1, kappa, Murine surrogate: bivalent human PD1-targeted murine IgG DA PG with masked human IL2v in-line on the C-terminus of the Fc DD- chain, two PQARK sites; also called P1AG9983; P1AG9983-001) light: KIVLTQSPASLPVSLGQRATISCRASESVDTSDNSFIHWYQQRPGQSPKLLIYRSSTLESGVPARFSGSGSRTDFTLTIDPVEADDVATYYCQQNYDVPWTFGGGTKLEIKRADAAPTVSIFPPSSEQLTSGGASVVCFLNNFYPKDINVKWKIDGSERQNGVLNSWTDQDSKDSTYSMSSTLTLTKDEYERHNSYTCEATHKTSTSPIVKSFNRNEC heavy 1: EVILVESGGGLVKPGGSLKLSCAASGFSFSSYTMSWVRQTPEKRLDWVATISGGGRDIYYPDSVKGRFTISRDNAKNTLYLEMSSLMSEDTALYYCVLLTGRVYFALDSWGQGTSVTVSSAKTTPPSVYPLAPGSAAQTNSMVTLGCLVKGYFPEPVTVTWNSGSLSSGVHTFPAVLQSDLYTLSSSVTVPSSTWPSQTVTCNVAHPASSTKVDKKIVPRDCGCKPCICTVPEVSSVFIFPPKPKDVLTITLTPKVTCVVVAISKDDPEVQFSWFVDDVEVHTAQTKPREEQINSTFRSVSELPIMHQDWLNGKEFKCRVNSAAFGAPIEKTISKTKGRPKAPQVYTIPPPKKQMAKDKVSLTCMITNFFPEDITVEWQWNGQPAENYKNTQPIMKTDGSYFVYSKLNVQKSNWEAGNTFTCSVLHEGLHNHHTEKSLSHSPG heavy 2: EVILVESGGGLVKPGGSLKLSCAASGFSFSSYTMSWVRQTPEKRLDWVATISGGGRDIYYPDSVKGRFTISRDNAKNTLYLEMSSLMSEDTALYYCVLLTGRVYFALDSWGQGTSVTVSSAKTTPPSVYPLAPGSAAQTNSMVTLGCLVKGYFPEPVTVTWNSGSLSSGVHTFPAVLQSDLYTLSSSVTVPSSTWPSQTVTCNVAHPASSTKVDKKIVPRDCGCKPCICTVPEVSSVFIFPPKPKDVLTITLTPKVTCVVVAISKDDPEVQFSWFVDDVEVHTAQTKPREEQINSTFRSVSELPIMHQDWLNGKEFKCRVNSAAFGAPIEKTISKTKGRPKAPQVYTIPPPKEQMAKDKVSLTCMITNFFPEDITVEWQWNGQPAENYDNTQPIMDTDGSYFVYSDLNVQKSNWEAGNTFTCSVLHEGLHNHHTEKSLSHSPGGGGGSGGGGSGGGGGAPASSSTKKTQLQLEHLLLDLQMILNGINNYKNPKLTRMLTAKFAMPKKATELKHLQCLEEELKPLEEVLNGAQSKNFHLRPRDLISNINVIVLELKGSETTFMCEYADETATIVEFLNRWITFAQSIISTLTGGGGSGGGGSPQARKGGGGSGGGGSGGGGSGGGGSGGGEVQLVESGGGLVQPGGSLRLSCAASGFTFSSYTLAWVRQAPGKGLEWVAAIDSSSYTYSPDTVRGRFTISRDNAKNSLYLQMNSLRAEDTAVYYCARDSNWDALDYWGQGTTVTVSSGGGGSGGPQARKGGGGSGGGDIQMTQSPSSLSASVGDRVTITCKASQNVGTNVGWYQQKPGKAPKALIYSASFRYSGVPSRFSGSGSGTDFTLTISSLQPEDFATYYCQQYYTYPYTFGGGTKVEIK
~2 | ~2 |  |  |  | murine PD1-IL2v, unmasked, in line (antibody, mouse IgG1, kappa, Murine surrogate: bivalent human PD1-targeted murine IgG DA PG with IL2v fused to the C-terminus of the Fc DD- chain (non-masked control); also called P1AG7552; P1AG7552-006) light: KIVLTQSPASLPVSLGQRATISCRASESVDTSDNSFIHWYQQRPGQSPKLLIYRSSTLESGVPARFSGSGSRTDFTLTIDPVEADDVATYYCQQNYDVPWTFGGGTKLEIKRADAAPTVSIFPPSSEQLTSGGASVVCFLNNFYPKDINVKWKIDGSERQNGVLNSWTDQDSKDSTYSMSSTLTLTKDEYERHNSYTCEATHKTSTSPIVKSFNRNEC heavy 1: EVILVESGGGLVKPGGSLKLSCAASGFSFSSYTMSWVRQTPEKRLDWVATISGGGRDIYYPDSVKGRFTISRDNAKNTLYLEMSSLMSEDTALYYCVLLTGRVYFALDSWGQGTSVTVSSAKTTPPSVYPLAPGSAAQTNSMVTLGCLVKGYFPEPVTVTWNSGSLSSGVHTFPAVLQSDLYTLSSSVTVPSSTWPSQTVTCNVAHPASSTKVDKKIVPRDCGCKPCICTVPEVSSVFIFPPKPKDVLTITLTPKVTCVVVAISKDDPEVQFSWFVDDVEVHTAQTKPREEQINSTFRSVSELPIMHQDWLNGKEFKCRVNSAAFGAPIEKTISKTKGRPKAPQVYTIPPPKKQMAKDKVSLTCMITNFFPEDITVEWQWNGQPAENYKNTQPIMKTDGSYFVYSKLNVQKSNWEAGNTFTCSVLHEGLHNHHTEKSLSHSPG heavy 2: EVILVESGGGLVKPGGSLKLSCAASGFSFSSYTMSWVRQTPEKRLDWVATISGGGRDIYYPDSVKGRFTISRDNAKNTLYLEMSSLMSEDTALYYCVLLTGRVYFALDSWGQGTSVTVSSAKTTPPSVYPLAPGSAAQTNSMVTLGCLVKGYFPEPVTVTWNSGSLSSGVHTFPAVLQSDLYTLSSSVTVPSSTWPSQTVTCNVAHPASSTKVDKKIVPRDCGCKPCICTVPEVSSVFIFPPKPKDVLTITLTPKVTCVVVAISKDDPEVQFSWFVDDVEVHTAQTKPREEQINSTFRSVSELPIMHQDWLNGKEFKCRVNSAAFGAPIEKTISKTKGRPKAPQVYTIPPPKEQMAKDKVSLTCMITNFFPEDITVEWQWNGQPAENYDNTQPIMDTDGSYFVYSDLNVQKSNWEAGNTFTCSVLHEGLHNHHTEKSLSHSPGGGGGSGGGGSGGGGGAPASSSTKKTQLQLEHLLLDLQMILNGINNYKNPKLTRMLTAKFAMPKKATELKHLQCLEEELKPLEEVLNGAQSKNFHLRPRDLISNINVIVLELKGSETTFMCEYADETATIVEFLNRWITFAQSIISTLT
 |  | ~2 | ~2 | ~3 | human TA PD1-IL2v, MT204, 2xPQARK, N-term (antibody, One-armed human PD1-targeted human IgG PG LALA (knobs-into-holes); MT204 scFv-masked IL2v is fused N-terminally to the hinge of the Fc knob chain, with two PQARK sites; also called P1AG9597; P1AG9597-007) light: DIVMTQSPDSLAVSLGERATINCKASESVDTSDNSFIHWYQQKPGQSPKLLIYRSSTLESGVPDRFSGSGSGTDFTLTISSLQAEDVAVYYCQQNYDVPWTFGQGTKVEIKRTVAAPSVFIFPPSDEQLKSGTASVVCLLNNFYPREAKVQWKVDNALQSGNSQESVTEQDSKDSTYSLSSTLTLSKADYEKHKVYACEVTHQGLSSPVTKSFNRGEC heavy: EVQLLESGGGLVQPGGSLRLSCAASGFSFSSYTMSWVRQAPGKGLEWVATISGGGRDIYYPDSVKGRFTISRDNSKNTLYLQMNSLRAEDTAVYYCVLLTGRVYFALDSWGQGTLVTVSSASTKGPSVFPLAPSSKSTSGGTAALGCLVKDYFPEPVTVSWNSGALTSGVHTFPAVLQSSGLYSLSSVVTVPSSSLGTQTYICNVNHKPSNTKVDKKVEPKSCDKTHTCPPCPAPEAAGGPSVFLFPPKPKDTLMISRTPEVTCVVVDVSHEDPEVKFNWYVDGVEVHNAKTKPREEQYNSTYRVVSVLTVLHQDWLNGKEYKCKVSNKALGAPIEKTISKAKGQPREPQVCTLPPSRDELTKNQVSLSCAVKGFYPSDIAVEWESNGQPENNYKTTPPVLDSDGSFFLVSKLTVDKSRWQQGNVFSCSVMHEALHNHYTQKSLSLSPG not shown
